The target in this assay is T1, human C1q (human, UniProt P02745 23-245; P02746 28-253; P02747 29-245).
T1 construct: Bought protein; also called first component of the classical complement cascade
The assay is described as follows: ELISA, antibody coated, C1q detected with rabbit anti-human C1q.

T1 sequence (P02745 23-245 limits assumed, chain 1 of 3): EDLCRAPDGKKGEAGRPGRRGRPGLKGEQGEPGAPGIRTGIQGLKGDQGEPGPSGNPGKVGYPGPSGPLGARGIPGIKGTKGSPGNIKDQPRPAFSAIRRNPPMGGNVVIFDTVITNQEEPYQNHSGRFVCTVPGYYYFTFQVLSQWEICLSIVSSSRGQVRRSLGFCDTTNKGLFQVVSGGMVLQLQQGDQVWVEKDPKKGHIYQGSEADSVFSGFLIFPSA
T1 sequence (P02746 28-253 limits assumed, chain 2 of 3): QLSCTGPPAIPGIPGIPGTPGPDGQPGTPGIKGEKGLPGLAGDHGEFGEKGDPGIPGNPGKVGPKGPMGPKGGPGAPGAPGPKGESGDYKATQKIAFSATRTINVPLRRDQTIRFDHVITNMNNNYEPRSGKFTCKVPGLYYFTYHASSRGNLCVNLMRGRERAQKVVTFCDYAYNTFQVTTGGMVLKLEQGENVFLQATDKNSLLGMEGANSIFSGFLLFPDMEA
T1 sequence (P02747 29-245 limits assumed, chain 3 of 3): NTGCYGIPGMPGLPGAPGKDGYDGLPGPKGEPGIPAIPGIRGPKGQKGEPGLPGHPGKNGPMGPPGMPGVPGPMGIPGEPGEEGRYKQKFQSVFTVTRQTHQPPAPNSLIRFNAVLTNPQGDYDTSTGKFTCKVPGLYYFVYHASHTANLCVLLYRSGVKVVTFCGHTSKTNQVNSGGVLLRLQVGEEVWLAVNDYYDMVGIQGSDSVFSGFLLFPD
Procedure: In short, microtiter ELISA plates (Greiner, Germany) were coated overnight at RT with the test antibodies serially diluted from 10 μg/ml to 0.06 μg/ml in PBS. Plates were emptied and wells were blocked with 200 μl ELISA-diluent per well (0.1 M NaPO₄, 0.1 M NaCl, 0.1% gelatin and 0.05% Tween-20), at RT for 30 minutes. […] After washing the plates (3×) with PBST, wells were incubated with HRP-conjugated swine anti-rabbit IgG-Fc (DAKO, P0300, lot #069) diluted in ELISA diluent (1:2500, 100 μl/well, RT, 1 hour). Thereafter, plates were washed thrice and assays were developed with freshly prepared 1 mg/ml ABTS solution (ABTS: 2,2′-azino-bis[3-ethylbenzthiazoline-6-sulfonic acid]); 2 tablets of 5 mg in 10 ml ABTS buffer, Boehringer Mannheim, Ingelheim, Germany) at RT in the dark for 30 minutes.

B1: 7D8-HG (antibody)
heavy: EVQLVESGGGLVQPDRSLRLSCAASGFTFHDYAMHWVRQAPGKGLEWVSTISWNSGTIGYADSVKGRFTISRDNAKNSLYLQMNSLRAEDTALYYCAKDIQYGNYYYGMDVWGQGTTVTVSSASTKGPSVFPLAPCSRSTSESTAALGCLVKDYFPEPVTVSWNSGALTSGVHTFPAVLQSSGLYSLSSVVTVPSSSLGTKTYTCNVDHKPSNTKVDKRVAPEFLGGPSVFLFPPKPKDTLMISRTPEVTCVVVDVSQEDPEVQFNWYVDGVEVHNAKTKPREEQFNSTYRVVSVLTVLHQDWLNGKEYKCKVSNKGLPSSIEKTISKAKGQPREPQVYTLPPSQEEMTKNQVSLTCLVKGFYPSDIAVEWESNGQPENNYKTTPPVLDSDGSFFLYSRLTVDKSRWQEGNVFSCSVMHEALHNHYTQKSLSLSLGK
light: not shown
notes: Half-molecule of one heavy and one light chain; also called hingeless IgG4 anti-CD20; IgG4 HG
As for B1, the binding result was “no binding”.

The record behind these values is patent US20110045007A1 (Genmab, published 2011).
